Laboratory results from PMC3575195 (Nature communications, 2012).
One block for each molecule: values may come before it.

Columns and labels:
TRPP3-mCherry (human) = TRPP3-mCherry (human) (UniProt Q9P0L9); experiment: single-molecule photobleaching
[1] = molecular target: the molecule itself; experiment: single-molecule photobleaching
PKD1L3-mCherry = PKD1L3-mCherry (mouse, UniProt Q2EG98 21-2151); experiment: single-molecule photobleaching
SEC-MALS = molecular target: the molecule itself; experiment: SEC-MALS

Chain of PKD1L3-mCherry (Q2EG98 21-2151): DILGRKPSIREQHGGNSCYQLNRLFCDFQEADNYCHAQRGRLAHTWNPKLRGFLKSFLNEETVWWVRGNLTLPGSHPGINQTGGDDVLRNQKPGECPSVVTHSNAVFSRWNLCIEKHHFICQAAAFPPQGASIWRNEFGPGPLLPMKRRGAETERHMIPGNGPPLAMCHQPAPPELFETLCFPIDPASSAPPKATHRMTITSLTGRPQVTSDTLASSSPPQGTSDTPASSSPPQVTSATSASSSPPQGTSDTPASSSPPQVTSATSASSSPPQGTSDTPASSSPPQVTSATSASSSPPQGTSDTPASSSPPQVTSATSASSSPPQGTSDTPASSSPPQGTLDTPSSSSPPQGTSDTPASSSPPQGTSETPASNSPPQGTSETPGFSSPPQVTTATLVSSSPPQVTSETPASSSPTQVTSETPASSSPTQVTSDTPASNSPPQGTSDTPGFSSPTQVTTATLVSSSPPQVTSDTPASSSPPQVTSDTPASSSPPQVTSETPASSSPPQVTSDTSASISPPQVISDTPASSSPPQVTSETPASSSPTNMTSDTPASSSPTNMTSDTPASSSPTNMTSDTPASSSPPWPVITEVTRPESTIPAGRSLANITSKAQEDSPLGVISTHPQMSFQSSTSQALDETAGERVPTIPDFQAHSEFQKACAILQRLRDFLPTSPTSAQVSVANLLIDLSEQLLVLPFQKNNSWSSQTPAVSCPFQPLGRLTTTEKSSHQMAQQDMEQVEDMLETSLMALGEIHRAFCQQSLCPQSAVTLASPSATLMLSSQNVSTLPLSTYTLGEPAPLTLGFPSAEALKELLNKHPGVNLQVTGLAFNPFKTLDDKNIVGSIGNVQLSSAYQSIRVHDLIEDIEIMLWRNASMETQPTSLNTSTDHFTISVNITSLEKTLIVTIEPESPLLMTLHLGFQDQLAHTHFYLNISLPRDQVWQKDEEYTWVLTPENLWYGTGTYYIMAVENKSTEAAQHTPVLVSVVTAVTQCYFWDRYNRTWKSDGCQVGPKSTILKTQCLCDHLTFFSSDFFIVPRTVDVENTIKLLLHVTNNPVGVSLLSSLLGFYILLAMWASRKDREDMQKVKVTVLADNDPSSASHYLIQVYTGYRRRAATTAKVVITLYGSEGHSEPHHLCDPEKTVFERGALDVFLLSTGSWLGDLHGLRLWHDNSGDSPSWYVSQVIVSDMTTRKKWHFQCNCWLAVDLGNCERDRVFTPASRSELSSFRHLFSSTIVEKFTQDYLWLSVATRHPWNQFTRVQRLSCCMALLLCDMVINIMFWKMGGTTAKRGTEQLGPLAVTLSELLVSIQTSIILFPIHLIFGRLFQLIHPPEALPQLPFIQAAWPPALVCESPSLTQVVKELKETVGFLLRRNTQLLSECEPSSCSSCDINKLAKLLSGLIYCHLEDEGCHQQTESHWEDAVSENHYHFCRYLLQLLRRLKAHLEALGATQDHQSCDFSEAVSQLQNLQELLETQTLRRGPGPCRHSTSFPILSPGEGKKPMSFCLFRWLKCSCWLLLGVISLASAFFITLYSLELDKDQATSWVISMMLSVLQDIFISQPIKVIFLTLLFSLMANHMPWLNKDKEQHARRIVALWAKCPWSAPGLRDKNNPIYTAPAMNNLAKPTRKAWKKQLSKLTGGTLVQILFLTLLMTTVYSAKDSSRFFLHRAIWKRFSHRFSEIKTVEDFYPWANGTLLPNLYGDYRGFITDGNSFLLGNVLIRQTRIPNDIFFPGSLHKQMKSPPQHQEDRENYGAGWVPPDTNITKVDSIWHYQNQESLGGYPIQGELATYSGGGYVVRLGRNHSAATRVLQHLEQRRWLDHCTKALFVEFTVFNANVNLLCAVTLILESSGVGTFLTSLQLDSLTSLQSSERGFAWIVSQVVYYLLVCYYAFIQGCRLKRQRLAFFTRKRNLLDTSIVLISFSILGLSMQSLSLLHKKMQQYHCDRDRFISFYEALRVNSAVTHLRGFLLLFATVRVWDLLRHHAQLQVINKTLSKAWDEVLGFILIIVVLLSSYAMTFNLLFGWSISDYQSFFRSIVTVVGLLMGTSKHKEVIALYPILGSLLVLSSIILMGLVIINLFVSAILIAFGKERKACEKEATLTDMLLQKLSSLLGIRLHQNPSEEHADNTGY

stoichiometry N (TRPP3-mCherry (human)): 1
Molecule: PKD1L3-EGFP, Q2EG98 21-2151

stoichiometry N (PKD1L3-mCherry): 3
B1: TRPP3-EGFP (natural protein)
chain: MNAVGSPEGQELQKLGSGAWDNPAYSGPPSPHGTLRVCTISSTGPLQPQPKKPEDEPQETAYRTQVSSCCLHICQGIRGLWGTTLTENTAENRELYIKTTLRELLVYIVFLVDICLLTYGMTSSSAYYYTKVMSELFLHTPSDTGVSFQAISSMADFWDFAQGPLLDSLYWTKWYNNQSLGHGSHSFIYYENMLLGVPRLRQLKVRNDSCVVHEDFREDILSCYDVYSPDKEEQLPFGPFNGTAWTYHSQDELGGFSHWGRLTSYSGGGYYLDLPGSRQGSAEALRALQEGLWLDRGTRVVFIDFSVYNANINLFCVLRLVVEFPATGGAIPSWQIRTVKLIRYVSNWDFFIVGCEVIFCVFIFYYVVEEILELHIHRLRYLSSIWNILDLVVILLSIVAVGFHIFRTLEVNRLMGKLLQQPNTYADFEFLAFWQTQYNNMNAVNLFFAWIKIFKYISFNKTMTQLSSTLARCAKDILGFAVMFFIVFFAYAQLGYLLFGTQVENFSTFIKCIFTQFRIILGDFDYNAIDNANRILGPAYFVTYVFFVFFVLLNMFLAIINDTYSEVKEELAGQKDELQLSDLLKQGYNKTLLRLRLRKERVSDVQKVLQGGEQEIQFEDFTNTLRELGHAEHEITELTATFTKFDRDGNRILDEKEQEKMRQDLEEERVALNTEIEKLGRSIVSSPQGKSGPEAARAGGWVSGEEFYMLTRRVLQLETVLEGVVSQIDAVGSKLKMLERKGWLAPSPGVKEQAIWKHPQPAPAVTPDPWGVQGGQESEVPYKREEEALEERRLSRGEIPTLQRS
stoichiometry N [1]: 3

B2: MBP-TRPP3_CT (domain or fragment)
chain: KEELAGQKDELQLSDLLKQGYNKTLLRLRLRKERVSDVQKVLQGGEQEIQFEDFTNTLRELGHAEHEITELTATFTKFDRDGNRILDEKEQEKMRQDLEEERVALNTEIEKLGRSIVSSPQGKSGPEAARAGGWVSGEEFYMLTRRVLQLETVLEGVVSQIDAVGSKLKMLERKGWLAPSPGVKEQAIWKHPQPAPAVTPDPWGVQGGQESEVPYKREEEALEERRLSRGEIPTLQRS
stoichiometry N (SEC-MALS): 3
